{"source": "patent US20060211075", "proteins": {"B1": {"name": "c-Met (protein)", "chain": "KKRKQIKDLGSELVRYDARVHTPHLDRLVSARSVSPTTEMVSNESVDYRATFPEDQFPNSSQNGSCRQVQYPLTDMSPILTSGDSDISSPLLQNTVHIDLSALNPELVQAVQHVVIGPSSLIVHFNEVIGRGHFGCVYHGTLLDNDGKKIHCAVKSLNRITDIGEVSQFLTEGIIMKDFSHPNVLSLLGICLRSEGSPLVVLPYMKHGDLRNFIRNETHNPTVKDLIGFGLQVAKGMKYLASKKFVHRDLAARNCMLDEKFTVKVADFGLARDMYDKEYYSVHNKTGAKLPVKWMALESLQTQKFTTKSDVWSFGVLLWELMTRGAPPYPDVNTFDITVYLLQGRRLLQPEYCPDPLYEVMLKCWHPKAEMRPSFSELVSRISAIFSTFIGEHYVHVNATYVNVKCVAPYPSLLSSEDNADDEVDTRPASFWETS"}, "B2": {"name": "LynB (protein)", "chain": "MGCIKSKGKDSLSDDGVDLKTQPVPESQLLPGQRFQTKDPEEQGDIVVALYPYDGIHPDDLSFKKGEKMKVLEEHGEWWKAKSLLTKKEGFIPSNYVAKLNTLETEEWFFKDITRKDAERQLLAPGNSAGAFLIRESETLKGSFSLSVRDFDPVHGDVIKHYKIRSLDNGGYYISPRITFPCISDMIKHYQKQADGLCRRLEKACISPKPQKPWDKDAWEIPRESIKLVKRLGAGQFGEVWMGYYNNSTKVAVKTLKPGTMSVQAFLEEANLMKTLQHDKLVRLYAVVTREEPIYIITEYMAKGSLLDFLKSDEGGKVLLPKLIDFSAQIAEGMAYIERKNYIHRDLRAANVLVSESLMCKIADFGLARVIEDNEYTAREGAKFPIKWTAPEAINFGCFTIKSDVWSFGILLYEIVTYGKIPYPGRTNADVMTALSQGYRMPRVENCPDELYDIMKMCWKEKAEERPTFDYLQSVLDDFYTATEGQYQQQP"}, "B3": {"name": "Flt3 (protein)", "chain": "HKYKKQFRYESQLQMVQVTGSSDNEYFYVDFREYEYDLKWEFPRENLEFGKVLGSGAFGKVMNATAYGISKTGVSIQVAVKMLKEKADSSEREALMSELKMMTQLGSHENIVNLLGACTLSGPIYLIFEYCCYGDLLNYLRSKREKFHRTWTEIFKEHNFSFYPTFQSHPNSSMPGSREVQIHPDSDQISGLHGNSFHSEDEIEYENQKRLEEEEDLNVLTFEDLLCFAYQVAKGMEFLEFKSCVHRDLAARNVLVTHGKVVKICDFGLARDIMSDSNYVVRGNARLPVKWMAPESLFEGIYTIKSDVWSYGILLWEIFSLGVNPYPGIPVDANFYKLIQNGFKMDQPFYATEEIYIIMQSCWAFDSRKRPSFPNLTSFLGCQLADAEEAMYQNVDGRVSECPHTYQNRRPFSREMDLGLLSPQAQVEDS"}, "B4": {"name": "Fes/Fps (protein)", "chain": "MGFSSELCSPQGHGVLQQMQEAELRLLEGMRKWMAQRVKSDREYAGLLHHMSLQDSGGQSRAISPDSPISQSWAEITSQTEGLSRLLRQHAEDLNSGPLSKLSLLIRERQQLRKTYSEQWQQLQQELTKTHSQDIEKLKSQYRALARDSAQAKRKYQEASKDKDRDKAKDKYVRSLWKLFAHHNRYVLGVRAAQLHHQHHHQLLLPGLLRSLQDLHEEMACILKEILQEYLEISSLVQDEVVAIHREMAAAAARIQPEAEYQGFLRQYGSAPDVPPCVTFDESLLEEGEPLEPGELQLNELTVESVQHTLTSVTDELAVATEMVFRRQEMVTQLQQELRNEEENTHPRERVQLLGKRQVLQEALQGLQVALCSQAKLQAQQELLQTKLEHLGPGEPPPVLLLQDDRHSTSSSEQEREGGRTPTLEILKSHISGIFRPKFSLPPPLQLIPEVQKPLHEQLWYHGAIPRAEVAELLVHSGDFLVRESQGKQEYVLSVLWDGLPRHFIIQSLDNLYRLEGEGFPSIPLLIDHLLSTQQPLTKKSGVVLHRAVPKDKWVLNHEDLVLGEQIGRGNFGEVFSGRLRADNTLVAVKSCRETLPPDLKAKFLQEARILKQYSHPNIVRLIGVCTQKQPIYIVMELVQGGDFLTFLRTEGARLRVKTLLQMVGDAAAGMEYLESKCCIHRDLAARNCLVTEKNVLKISDFGMSREEADGVYAASGGLRQVPVKWTAPEALNYGRYSSESDVWSFGILLWETFSLGASPYPNLSNQQTREFVEKGGRLPCPELCPDAVFRLMEQCWAYEPGQRPSFSTIYQELQSIRKRHR"}, "B5": {"name": "MLK1 (protein)", "chain": "PPIQLLEIDFAELTLEEIIGIGGFGKVYRAFWIGDEVAVKAARHDPDEDISQTIENVRQEAKLFAMLKHPNIIALRGVCLKEPNLCLVMEFARGGPLNRVLSGKRIPPDILVNWAVQIARGMNYLHDEAIVPIIHRDLKSSNILILQKVENGDLSNKILKITDFGLAREWHRTTKMSAAGTYAWMAPEVIRASMFSKGSDVWSYGVLLWELLTGEVPFRGIDGLAVAYGVAMNKLALPIPSTCPEPFAKLMEDCWNPDPHSRPSFTNILDQLTTIEESGFFE"}, "B6": {"name": "ZAP-70 (protein)", "chain": "MPDPAAHLPFFYGSISRAEAEEHLKLAGMADGLFLLRQCLRSLGGYVLSLVHDVRFHHFPIERQLNGTYAIAGGKAHCGPAELCEFYSRDPDGLPCNLRKPCNRPSGLEPQPGVFDCLRDAMVRDYVRQTWKLEGEALEQAIISQAPQVEKLIATTAHERMPWYHSSLTREEAERKLYSGAQTDGKFLLRPRKEQGTYALSLIYGKTVYHYLISQDKAGKYCIPEGTKFDTLWQLVEYLKLKADGLIYCLKEACPNSSASNASGAAAPTLPAHPSTLTHPQRRIDTLNSDGYTPEPARITSPDKPRPMPMDTSVYESPYSDPEELKDKKLFLKRDNLLIADIELGCGNFGSVRQGVYRMRKKQIDVAIKVLKQGTEKADTEEMMREAQIMHQLDNPYIVRLIGVCQAEALMLVMEMAGGGPLHKFLVGKREEIPVSNVAELLHQVSMGMKYLEEKNFVHRDLAARNVLLVNRHYAKISDFGLSKALGADDSYYTARSAGKWPLKWYAPECINFRKFSSRSDVWSYGVTMWEALSYGQKPYKKMKGPEVMAFIEQGKRMECPPECPPELYALMSDCWIYKWEDRPDFLTVEQRMRACYYSLASKVEGPPGSTQKAEAACA"}, "B7": {"name": "Csk (protein)", "chain": "MSAIQAAWPSGTECIAKYNFHGTAEQDLPFCKGDVLTIVAVTKDPNWYKAKNKVGREGIIPANYVQKREGVKAGTKLSLMPWFHGKITREQAERLLYPPETGLFLVRESTNYPGDYTLCVSCDGKVEHYRIMYHASKLSIDEEVYFENLMQLVEHYTSDADGLCTRLIKPKVMEGTVAAQDEFYRSGWALNMKELKLLQTIGKGEFGDVMLGDYRGNKVAVKCIKNDATAQAFLAEASVMTQLRHSNLVQLLGVIVEEKGGLYIVTEYMAKGSLVDYLRSRGRSVLGGDCLLKFSLDVCEAMEYLEGNNFVHRDLAARNVLVSEDNVAKVSDFGLTKEASSTQDTGKLPVKWTAPEALREKKFSTKSDVWSFGILLWEIYSFGRVPYPRIPLKDVVPRVEKGYKMDAPDGCPPAVYEVMKNCWHLDAAMRPSFLQLREQLEHIKTHELHL"}}, "data": [{"target": "T1, peptide 23, Dap-substituted pyrene derivative at Y+3 (not fully specified)", "T1 chain": "EEEIYGEXEA", "units": {"Km": "µM", "Vmax": "µmol/min/mg"}, "values": [{"protein": "B1", "phosphorylation of the peptide (fluorescence)": "unable to effectively catalyze the phosphorylation of either 23 or 25"}, {"protein": "B2", "Km": 130, "Vmax": 4}, {"protein": "B3", "Km": 450, "Vmax": 4.9}, {"protein": "B4", "Km": 60, "Vmax": 3}, {"protein": "B5", "phosphorylation of the peptide (fluorescence)": "unable to effectively catalyze the phosphorylation of either 23 or 25"}, {"protein": "B6", "phosphorylation of the peptide (fluorescence)": "unable to effectively catalyze the phosphorylation of either 23 or 25"}, {"protein": "B7", "Km": 120, "Vmax": 0.4}]}]}
